# Patent US20250263470A1 (AstraZeneca / MedImmune, published 2025)
# Where a chain is given by its changes, count along the chain named.
# B1: FBD-56 (antibody, V domains shown)
# VH: EVQLVESGGHLVQPGRSLRLSCAASGFTFEDYAMNWVRQAPGKGLEWVSVISWDSGRIGYADSVKGRFTISRDNAKNSSYLQMNSLRPEDTALYYCVRDMLAYYSDNSGKKYNVYGMDVWGQGTTVTVSS
# VL: EIVLTQSPATLSLSPGERATLSCRASQSVSTFLAWYQQKPGQAPRLLMYDASNRATGIPARFSGSGSGTDFTLTISSLEPEDFAIYYCQQRSHWPPIFGQGTRLEIK
# B2: FBD-94 (antibody, V domains shown)
# VH: EVQLVESGGGLVQPGRSLRLSCAVSGFIFEDYAINWVRQAPGKGLEWVSIISWDSGRIGYADSVRGRFTISRDNAKNSSFLQMNSLRPEDTAVYYCVKDMLAYYYDGSGIRYNLYGMDVWGQGTTVTVSS
# VL: B1 VL with Q27R, V29I, S30T, M48I, I58V, S76N, E81D, S92D
# B3: FBC-39 (antibody, V domains shown)
# VH: EVQLVVSGGGLVKPGGSLRLSCAASGLSFLNAWMSWVRQAPGKGLEWVGRIKSNTDGGTTDYAAPVKGRFSISRDDSKNMLFLHMSSLRTEDTAVYYCATDGPYSDDFRSGYAARYRYFGMDVWGQGTTVTVSS
# VL: DIQMTQSPSSVSASVGDRVTITCRASQDISTWLAWYQQKPGKAPKLLIYAASSLQSGVPSRFSGSGSGTDFTLTISSLQPEDFATYFCQQANSFPPTFGQGTKLEIK
# B4: FBC-39 LSL (antibody, V domains shown)
# VH: B3 VH with V6E, S71T, M80T, F82Y, H84Q, R89K, A99T
# VL: B3 VL with F87Y
# B5: FBC-39 LTL (antibody, V domains shown)
# VH: B3 VH with V6E, S28T, S71T, M80T, F82Y, H84Q, R89K, A99T
# VL: B3 VL with F87Y
# B6: FBC-39 FSL (antibody, V domains shown)
# VH: B3 VH with V6E, L27F, S71T, M80T, F82Y, H84Q, R89K, A99T
# VL: B3 VL with F87Y
# B7: FBC-39 FTL (antibody, V domains shown)
# VH: B3 VH with V6E, L27F, S28T, S71T, M80T, F82Y, H84Q, R89K, A99T
# VL: B3 VL with F87Y
# Target: HA of influenza B virus B/Florida/4/2006 (yamagata) (influenza B virus B/Florida/4/2006)
# Assay: cell-based or functional assay
row,Binder,Neutralization (Ave IC50 ug/ml)
1,B1,0.013 µg/mL
2,B2,0.016 µg/mL
3,B3,0.046 µg/mL
4,B4,0.016 µg/mL
5,B5,0.023 µg/mL
6,B6,0.017 µg/mL
7,B7,0.014 µg/mL
